B1: HDV Ribozyme (parent)
chain: GGCCGGCAUGGUCCCAGCCUCCUCGCUGGCGCCGGCUGGGCAACAUUCCGAGGGGACCGUCCCCUCGGUAAUGGCGAAUGGGACCCA

The variants in this data set derive from B1. As to the kind of experiment: self-cleavage, relative activity (ratio to wild type); higher = more cleavage; co-transcriptional.
Turning to GGCCGGCAUGGUUCCAGCCUCCUCGCUGGCGCCGGCUGGGCAACAUUCUGAGGGGACCGUCCCCUCGGUAAUGGCGAAUGGGACCCA [C13U C49U], the self-cleavage was 0.256.

Consider GGCCGGCAUGGUUCCAGCCUCCUCGCUGGCGCCGGCUGGGCAACAUUCGGAGGGGACCGUCCCCUCGGUAAUGGCGAAUGGGACCCA [C13U C49G], for which the self-cleavage is 0.426.

GGCCGGCAUGGUUCCAGCCUCCUCGCUGGCGCCGGCUGGGCAACAUUACGAGGGGACCGUCCCCUCGGUAAUGGCGAAUGGGACCCA [C13U C48A]: the self-cleavage turned out to be 0.415.

Consider GGCCGGCAUGGUUCCAGCCUCCUCGCUGGCGCCGGCUGGGCAACAUUGCGAGGGGACCGUCCCCUCGGUAAUGGCGAAUGGGACCCA [C13U C48G], for which the self-cleavage is 0.499.

For the variant GGCCGGCAUGGUUCCAGCCUCCUCGCUGGCGCCGGCUGGGCAACAUUCCGAGGGGACCGUCCGCUCGGUAAUGGCGAAUGGGACCCA [C13U C63G], the self-cleavage was found to be 0.233.

In the case of GGCCGGCAUGGUUCCAGCCUCCUCGCUGGCGCCGGCUGGGCAACAUUCCGAGGGGACCGUCCUCUCGGUAAUGGCGAAUGGGACCCA [C13U C63U], the self-cleavage came to 0.696.

On to GGCCGGCAUGGUUCCAGCCUCCUCGCUGGCGCCGGCUGGGCAACAUUCCGAGGGGACGGUCCCCUCGGUAAUGGCGAAUGGGACCCA [C13U C58G], for which the self-cleavage came to 0.554.

Turning to GGCCGGCAUGGUUCCAGCCUCCUCGCUGGCGCCGGCUGGGCAACAUUCCGAGGGGACAGUCCCCUCGGUAAUGGCGAAUGGGACCCA [C13U C58A], the self-cleavage was 0.665.

Consider GGCCGGCAUGGUUCCAGCCUCCUCGCUGGCGCCGGCUGGGCAACAUUCCGAGGGGACCGUCCCGUCGGUAAUGGCGAAUGGGACCCA [C13U C64G], for which the self-cleavage turned out to be 0.567.

With GGCCGGCAUGGUUCCAGCCUCCUCGCUGGCGCCGGCUGGGCAACAUUCCGAGGGGACCGUCCCAUCGGUAAUGGCGAAUGGGACCCA [C13U C64A], the self-cleavage turned out to be 0.807.

As to GGCCGGCAUGGUUCCAGCCUCCUCGCUGGCGCCGGCUGGGCAACAUUCCGAGGGGACCGUCCCCUCGGUAAUGGGGAAUGGGACCCA [C13U C75G], the self-cleavage worked out at 0.0723.

For the variant GGCCGGCAUGGUUCCAGCCUCCUCGCUGGCGCCGGCUGGGCAACAUUCCGAGGGGACCGUGCCCUCGGUAAUGGCGAAUGGGACCCA [C13U C61G], the self-cleavage was found to be 0.684.

As to GGCCGGCAUGGUUCCAGCCUCCUCGCUGGCGCCGGCUGGGCAACAUUCCGAGGGGACCGUCCCCUCGGUAAUGGCGAAUGGGACCAA [C13U C86A], the self-cleavage came out at 0.96.

As to GGCCGGCAUGGUUCCAGCCUCCUCGCUGGCGCCGGCUGGGCAACAUUCCGAGGGGACCGUCCCCUCGGUAAUGGCGAAUGGGACUCA [C13U C85U], the self-cleavage stood at 0.332.

With GGCCGGCAUGGUUCCAGCCUCCUCGCUGGCGCCGGCUGGGCAACAUUCCGAGGGGACCGUCCCCUCGGUAAUGGCGAAUGGGACACA [C13U C85A], the self-cleavage was found to be 0.475.

On to GGCCGGCAUGGUUCCAGCCUCCUCGCUGGCGCCGGCUGGGCAACAUUCCGAGGGGACCGUCCCCUCGGUAAUGGCGAAUGGGACGCA [C13U C85G], for which the self-cleavage was 0.332.

For the variant GGCCGGCAUGGUUCCAGCCUCCUCGCUGUCGCCGGCUGGGCAACAUUCCGAGGGGACCGUCCCCUCGGUAAUGGCGAAUGGGACCCA [C13U G29U], the self-cleavage was 0.0707.

Regarding GGCCGGCAUGGUUCCAGCCUCCUCUCUGGCGCCGGCUGGGCAACAUUCCGAGGGGACCGUCCCCUCGGUAAUGGCGAAUGGGACCCA [C13U G25U], the self-cleavage worked out at 0.

As for GGCCGGCAUGGUUCCAGCCUCCUCCCUGGCGCCGGCUGGGCAACAUUCCGAGGGGACCGUCCCCUCGGUAAUGGCGAAUGGGACCCA [C13U G25C], the self-cleavage is 0.0723.

For GGCCGGCAUGGUUCCAGCCUCCUCGCUGGCGCCGGCUGGGCAACAUUCCGAGGGGACCGUCUCCUCGGUAAUGGCGAAUGGGACCCA [C13U C62U], the self-cleavage came out at 0.589.

Turning to GGCCGGCAUGGUUCCAGCCUCCUCGCUGGCGCCGGCUGGGCAACAUUCCGAGGGGACCGUCACCUCGGUAAUGGCGAAUGGGACCCA [C13U C62A], the self-cleavage worked out at 0.489.

For GGCCGGCAUGGUUCCAGCCUCCUCGCUGGCCCCGGCUGGGCAACAUUCCGAGGGGACCGUCCCCUCGGUAAUGGCGAAUGGGACCCA [C13U G31C], the self-cleavage was 0.198.

Consider GGCCGGCAUGGUUCCAGCCUCCUCGCUGGCACCGGCUGGGCAACAUUCCGAGGGGACCGUCCCCUCGGUAAUGGCGAAUGGGACCCA [C13U G31A], for which the self-cleavage stood at 0.131.

Consider GGCCGGCAUGGUUCCAGCCUCCUCGCUGGCGCCGGCUGGGCAAGAUUCCGAGGGGACCGUCCCCUCGGUAAUGGCGAAUGGGACCCA [C13U C44G], for which the self-cleavage worked out at 0.332.

On to GGCCGGCAUGGUUCCAGCCUCCUCGCUGGCGCCGGCUGGGCAAUAUUCCGAGGGGACCGUCCCCUCGGUAAUGGCGAAUGGGACCCA [C13U C44U], for which the self-cleavage stood at 0.185.

Consider GGCCGGCAUGGUUCCAGCCUCCUCGCUGGCGCCGGCUGGGCAAAAUUCCGAGGGGACCGUCCCCUCGGUAAUGGCGAAUGGGACCCA [C13U C44A], for which the self-cleavage stood at 0.18.

Take GGCCGGCAUGGUUCCAGCCUCCUCGCUGGCGCCGGCUGGGCAACAUUCCGAGGGGAGCGUCCCCUCGGUAAUGGCGAAUGGGACCCA [C13U C57G]: the self-cleavage was 0.587.

Consider GGCCGGCAUGGUUCCAGCCUCCUCGCUGGCGCCGGCUGGGCAACAUUCCGAGGGGACCGUCCCCUCGGUAAUGGCGAAUGGGAGCCA [C13U C84G], for which the self-cleavage came to 0.969.

Take GGCCGGCAUGGUUCCAGCCUCCUCGCUGGCGCCGGCUGGGCAACAUUCCGAGGGGACCGUCCCCUCGGUAAUGGCGAAUGGGAACCA [C13U C84A]: the self-cleavage turned out to be 0.911.

With GGCCGGCAUGGUUCCAGCCUCCUCGCUGGCGCCGGCUGGGCAACAUUCCGAGGGGACCGUCCCCUUGGUAAUGGCGAAUGGGACCCA [C13U C66U], the self-cleavage was 0.698.

For the variant GGCCGGCAUGGUUCCAGCCUCCUCGCUGGCGCCGGCUGGGCAACAUUCCGAGGGGACCGUCCCCUGGGUAAUGGCGAAUGGGACCCA [C13U C66G], the self-cleavage was found to be 0.589.

Regarding GGCCGGCAUGGUUCCAGCCUCCUCGCUAGCGCCGGCUGGGCAACAUUCCGAGGGGACCGUCCCCUCGGUAAUGGCGAAUGGGACCCA [C13U G28A], the self-cleavage worked out at 0.128.
